# Laboratory results published in publication PMC6739470, “Modular Protein Ligation: A New Paradigm as a Reagent Platform for Pre-Clinical Drug Discovery” (Scientific Reports, 2019).
# B1: sCD73flagACK-biotin (soluble CD73 truncated after S552, C-terminal flag-Ala, ligated to C[K-PEG2-Biotin]) (enzyme, human, UniProt P21589 27-552, looked up)
# chain: WELTILHTNDVHSRLEQTSEDSSKCVNASRCMGGVARLFTKVQQIRRAEPNVLLLDAGDQYQGTIWFTVYKGAEVAHFMNALRYDAMALGNHEFDNGVEGLIEPLLKEAKFPILSANIKAKGPLASQISGLYLPYKVLPVGDEVVGIVGYTSKETPFLSNPGTNLVFEDEITALQPEVDKLKTLNVNKIIALGHSGFEMDKLIAQKVRGVDVVVGGHSNTFLYTGNPPSKEVPAGKYPFIVTSDDGRKVPVVQAYAFGKYLGYLKIEFDERGNVISSHGNPILLNSSIPEDPSIKADINKWRIKLDNYSTQELGKTIVYLDGSSQSCRFRECNMGNLICDAMINNNLRHTDEMFWNHVSMCILNGGGIRSPIDERNNGTITWENLAAVLPFGGTFDLVQLKGSTLKKAFEHSVHRYGQSTGEFLQVGGIHVVYDLSRKPGDRVVKLDVLCTKCRVPSYDPLKMDEVYKVILPNFLANGGDGFQMIKDELLRHDSGDQDINVVSTYISKMKVIYPAVEGRIKFSTGS
# modifications: C-terminal Ala-Cys-Lys after the flag tag (Ala from the construct, Cys-Lys dipeptide added by expressed protein ligation); PEG2-biotin on the epsilon-amino group of the lysine
# notes: soluble CD73 (5'-nucleotidase), truncated after residue S552; Uniprot P21589; Chain order: CD73(to S552)-flag-Ala-Cys-Lys(PEG2-biotin); Secreted protein; also called CD73 labeled with CK-biotin; sCD73flagACK-label; source: HEK293 cells transduced with BacMam, secreted as GyrA-CBD fusion; captured on chitin resin, ligated in 36 mM MESNA, sized on Superdex 200; not shown: FLAG, C-terminal, kept
# B2: sCD73-flag-CK-fluorescein (soluble CD73 truncated after S552, C-terminal flag-Ala, ligated to C[K-fluorescein]) (enzyme, human, UniProt P21589 27-552, looked up)
# chain: B1 chain
# modifications: C-terminal Ala-Cys-Lys after the flag tag (Ala from the construct, Cys-Lys dipeptide added by expressed protein ligation); fluorescein on the epsilon-amino group of the lysine
# notes: soluble CD73 (5'-nucleotidase), truncated after residue S552; Uniprot P21589; Chain order: CD73(to S552)-flag-Ala-Cys-Lys(fluorescein); Secreted protein; also called CD73 EPL fluorescein labeled; CD73 labeled with CK-fluorescein; source: HEK293 cells transduced with BacMam, secreted as GyrA-CBD fusion; captured on chitin resin, ligated in 36 mM MESNA, sized on Superdex 200; not shown: FLAG, …
# Target: the molecule itself
# Experiment: SEC; Superdex 200 column, final labeled products, compared with MW standards; no aggregate peak observed
row,Protein,stoichiometry N
1,B1,2
2,B2,2
